# Where a SMILES comes first, the peptide text is derived from it. The star is where a group is joined. Cbz = O=C(OCc1ccccc1)*; CH2Cl = ClC*
# B1: wheat D1 protease purified from wheat leaves (Triticum aestivum, var. Fidel) (protein)
# chain: LTEENLLFLEAWRAVDRAYYDKSFNGQSWFRYRERALRDDPMNTRQETYAAIKKMLATLDDPFTRLLEPEKFKSLRSGTQGALTGVGLSIGYPLALKGSPAGLSVMSAAPGGPAEKAGIVSGDVILAIDDTSAQDMDIYDAADRLQGPEGSSIDLTILSGADTRHVVLKRERYTLNPVRSRMCEIPGSEDSSKIGYIKLTTFNQNAAGSVKEAIKKLREKNVKAFVLDLRNNSGGLFPEGIEIAKIWMDKGVIVYICDSRGVRDIYEADGASTIAASEPLVVLVNKGTASASEILAGALKDNKRAVVYGEPTYGKGKIQSVFALSDGSGLAVTVARYETPAHTDIDKVGVTPDRPLPASFPTDEDGFCSCLRDPASCNLNAARLFVRS
# B2: recombinant wheat D1 protease expressed in E. coli from pET-32a(+) (thioredoxin-D1 protease fusion, refolded) (protein)
# chain: B1 chain
# B3: D1 protease from Scenedesmus obliquus (protein)
# chain: VTSEQLLFLEAWRAVDRAYVDKSFNGQSWFKLRETYLKKEPMDRRAQTYDAIRKLLAVLDDPFTRFLEPSRLAALRRGTAGSVTGVGLEITYDGGSGKDVVVLTPAPGGPAEKAGARAGDVIVTVDGTAVKGLSLYDVSDLLQGEADSQVEVVLHAPGAPSNTRTLQLTRQKVTINPVTFTTCSNVAAAALPPGAAKQQLGYVRLATFNSNTTAAAQQAFTELSKQGVAGLVLDIRNNGGGLFPAGVNVARMLVDRGDLVLIADSQGIRDIYSADGNSIDSATPLVVLVNRGTASASEVLAGALKDSKRGLIAGERTFGKGLIQTVVDLSDGSGVAVTVARYQTPAGVDINKIGVSPDVQLDPEVLPTDLEGVCRVLGSDAAPRLFG
# How the values were obtained:
# wheat D1 protease = assay: In vitro high-throughput assay with LF-1 thylakoid membrane fragments containing pre-D1, detecting the mature D1 enzyme product; format: biochemical; settings: 7 mM Z-LDLA-CMK; D1 protease pre-incubated with it for 1 h at pH 7.0; same assay without inhibitor 0.141 OD; without D1P 0.023 OD
# Description: The assay was capable of detecting both type of products. Because this assay used isolated thylakoid membrane containing the D1 pre-protein substrate the assay could be run at a pH similar to that found in the whole plant.
# The PSII-enriched thylakoid membrane fragment was isolated from Scenedesmus LF-1 mutant cells using a mild TRITON X-100-treatment as follows:
# Scenedesmus cells were broken in a “bead-beater” (Biospec Products, Bartlesville, Okla.) in an ice-water bath with 1-mm diameter glass beads using 10 bursts of 45 sec each. […]
# When using the type 2 HRP conjugated primary antibody […] of colorimetric substrate, TMB (Kirkgaard & Perry Laboratories, Inc., Gaithersburg, Md.) or fluorescent substrate, N-acetyl-3,7-dihydroxyphenoxazine (A6550, Molecular Probes, Inc., Eugene, Oreg.) or chemiluminescence substrate, BM Chemiluminescence ELISA Reagent (Boehringer Mannheim Corp., Indianapolis, Ind.) was added to each well. […] Next the substrate was transfered to a regular plastic 96-well microtiter plate using the manifold and vacuum and then read for absorption or fluorescence or chmiluminescence intensity. […]
# [1] = biological target: T1, internally quenched fluorescent substrate Ac-NAHN(K-Dnp)PLDLAAVE(K-Mca)PSING-OH
# T1 chain: AHNKPLDLAAVEKPSING
# [2] = biological target: D1 pre-protein (unprocessed D1 polypeptide) of the Scenedesmus obliquus LF-1 mutant, in PSII core complexes or thylakoid membrane fragments
molecule,measurement,setting,value
"CC(C)C[C@H](NC(=O)OCc1ccccc1)C(=O)N[C@@H](CC(=O)O)C(=O)N[C@@H](CC(C)C)C(=O)N[C@@H](C)C(=O)CCl [Z-LDLA-CMK, Z-Leu-Asp-Leu-Ala-CH2Cl] (Cbz-LDLA-CH2Cl)","Type2 AB and TMB, Absorption change, With D1P",wheat D1 protease,0.081 OD
B1,"fluorescence intensity of the internally quenched substrate (excitation 320 nm, emission 409 nm)",[1],samples containing active enzyme were measured at 3000 fluorescence units
same,"Type1 AB and ATTOPHOS (Fluorescence intensity), With D1P",[2],1070 RU
same,"Type1 AB and PNP (Absorbance OD 450-650), With D1P",[2],0.365 OD
same,"Type2 AB and A6550 (Fluorescence intensity), With D1P",[2],263 RU
same,"Type2 AB and BM (Chemiluminescence intensity), With D1P",[2],33 RU
same,"Type2 AB and TMB (Absorbance at OD 650-450), With D1P",[2],0.141 OD
same,"fluorescamine fluorescence of the released C-terminal D1-tail, Well with D1 protease",[2],515 ± 10 relative units
B2,specific activity in the microtiter plate ELISA assay,[2],"The specific activity of the recombinant enzyme, expressed in relative units, is close to that of the natural enzyme isolated from wheat leaves"
B3,"microtiter plate ELISA of D1 protease activity (color reaction, percent of pre-D1 cleaved)",[2],the intensity of the color reaction is shown to be proportional to enzyme concentration up to approximately 20% of pre-D1 cleaved

# From patent US6350573B1, “Methods for identifying herbicidal agents that inhibit D1 protease” (E. I. du Pont de Nemours and Company, priority 1998, dated 2002)
